In assay [1] the target is IL-20RA/IL-20RB heterodimeric receptor (human).
For assay [2] the target is unchanged. The source holds these as a separate data set.
Assay [3] has the same target. The source holds these as a separate data set.
The target is the same in assay [4]. The source holds these as a separate data set.
The target is the same in assay [5]. The source holds these as a separate data set.
In the next assay the target is T1, 125I-labeled IL-20 (Homo sapiens (Human), UniProt Q9NYY1, 125I-labeled).
T1 sequence: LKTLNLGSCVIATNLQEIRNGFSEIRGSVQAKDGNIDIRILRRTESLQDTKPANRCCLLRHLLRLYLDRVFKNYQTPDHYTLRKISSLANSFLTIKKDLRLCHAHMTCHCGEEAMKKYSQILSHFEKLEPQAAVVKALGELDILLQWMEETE
Description: radiolabeled ligand binding to BHK cells stably transfected with IL-20RA and IL-20RB. How it is done:
The specificity and affinity of IL-20 for its receptor was determined using BHK cells stably transfected with IL-20RA, IL-20RB or both receptor subunits. […] Binding of ¹²⁵I-labeled IL-20 was eliminated in the presence of 100-fold excess of unlabeled IL-20 but not with 100-fold excess of the unrelated cytokine, IL-21.

The molecule “Interleukin-20 (IL-20) (from UniProt Q9NYY1) (ligand)” yielded a half-maximal IL-20 concentration, STAT3 nuclear translocation in HaCaT cells in assay [1] of 7 nM. This molecule also showed a half maximal response, SRE/STAT luciferase reporter in HaCaT cells in assay [2] of 2.3 nM. In addition, the half-maximal response, luciferase reporter in HaCaT cells, IL-20 in combination with a submaximal dose of IL-1beta in assay [3] worked out at 0.5 nM. Further, in assay [4], the half maximal response, proliferation of BaF3 cells co-transfected with IL-20RA and IL-20RB is 3.4 pM; the proliferation of BaF3 cells co-transfected with IL-20RA and IL-20RB was determined as 1.1 pM. In assay [5], the half-maximal response, STAT-luciferase in BHK cells transfected with both receptor subunits turned out to be 5.7 pM.

B1: IL-20RA/IL-20RB heterodimeric receptor (receptor)
chain 1: VPCVSGGLPKPANITFLSINMKNVLQWTPPEGLQGVKVTYTVQYFIYGQKKWLNKSECRNINRTYCDLSAETSDYEHQYYAKVKAIWGTKCSKWAESGRFYPFLETQIGPPEVALTTDEKSISVVLTAPEKWKRNPEDLPVSMQQIYSNLKYNVSVLNTKSNRTWSQCVTNHTLVLTWLEPNTLYCVHVESFVPGPPRRAQPSEKQCARTLKDQSSEFKAKIIFWYVLPISITVFLFSVMGYSIYRYIHVGKEKHPANLILIYGNEFDKRFFVPAEKIVINFITLNISDDSKISHQDMSLLGKSSDVSSLNDPQPSGNLRPPQEEEEVKHLGYASHLMEIFCDSEENTEGTSFTQQESLSRTIPPDKTVIEYEYDVRTTDICAGPEEQELSLQEEVSTQGTLLESQAALAVLGPQTLQYSYTPQLQDLDPLAQEHTDSEEGPEEEPSTTLVDWDPQTGRLCIPSLSSFDQDSEGCEPSEGDGLGEEGLLSRLYEEPAPDRPPGENETYLMQFMEEWGLYVQMEN
chain 2: DEVAILPAPQNLSVLSTNMKHLLMWSPVIAPGETVYYSVEYQGEYESLYTSHIWIPSSWCSLTEGPECDVTDDITATVPYNLRVRATLGSQTSAWSILKHPFNRNSTILTRPGMEITKDGFHLVIELEDLGPQFEFLVAYWRREPGAEEHVKMVRSGGIPVHLETMEPGAAYCVKAQTFVKAIGRYSAFSQTECVEVQGEAIPLVLALFAFVGFMLILVVVPLFVWKMGRLLQYSCCPVVVLPDTLKITNSPQKLISCRREEVDACATAVMSPEELLRAWIS
In the assay with 125I-labeled IL-20, B1 returned a Kd of around 1.5 nM.

As a reminder, the Kd is the constant that tells how readily two partners part at equilibrium.

The record behind these values is patent US20100197575A1, “SOLUBLE INTERLEUKIN-20 RECEPTOR” (ZymoGenetics, Inc., published 2010).
